A word on the Kd: it is the concentration at which binding is half-saturated.

Holding throughout (format): binding
The subject of data set [1] is F1G2 peptide. Nature of the data set: yeast/peptide colorimetric pull-down assay. Conditions: yeast-displayed protein. On the procedure:
(§1) Incubation and wash steps were repeated.

In data set [2] the target is T1, His NAA peptide (Agrobacterium fabrum, UniProt Q8UD95). Nature of the data set: flow cytometry of yeast displaying ClpS proteins. More on the design: factor Xa cleavage site (N); expressed in transfected cells. On the procedure: (§2) After two rounds of MACs selection, the library was sorted by flow cytometry. […] A typical reaction contained 100 μL of cells (containing approximately 10^6 cells), 10 μL of peptide at a concentration between 10 nM to 10 μM, and 25 μL of a master mix containing 2 μL of an anti-myc antibody, 4 μL of the SAPE (streptavidin, R-phycoerythrin conjugate—1 mg/mL) and 19 μL of PBS/BSA for each sample.
(§3) Cells were washed with PBS/BSA and sorted using a FACS Aria cytometer and collected in 1 mL of SD-CAA media. The number of cells that bound the peptide improved with each round and were sorted with sequentially lower concentrations of peptide to increase the stringency of the selection. […]
(§4) With regard to directed evolution of ClpS, random mutagenesis and screening was used to select proteins with higher affinity binding to the target NAA. In subsequent steps, specific residues were determined from initial screens with a targeted mutagenesis step. […] Using FACS, we assessed the affinity of each mutant for the N-terminal amino acid on the target peptide based on which quadrant the fluorescent signal fell into as shown in FIG. 15. […] If there is also a high fluorescence signal along the x-axis (streptavidin-PE) then the peptide is presumably bound to the protein variant, and the signal will appear in Q2. […]
On the technique in general: In flow cytometry, cells or beads pass a laser one at a time.

Data set [3] concerns the target T2, Arg NAA peptide (Agrobacterium fabrum, UniProt Q8UD95). Nature of the data set: flow cytometry of yeast displaying ClpS proteins. Further details: factor Xa cleavage site (N); expressed in transfected cells. The method, then:
as §2, §3, §4

Another data set addresses T3, Ala NAA peptide (Agrobacterium fabrum, UniProt Q8UD95).
T3 construct: factor Xa cleavage site (N); expressed in transfected cells; host or cells: Saccharomyces cerevisiae EBY100, pCTCON2
Nature of the data set: yeast/peptide colorimetric pull-down assay. On the procedure: as §1

A further data set has as its target T4, Lys NAA peptide (Agrobacterium fabrum, UniProt Q8UD95).
T4 construct: factor Xa cleavage site (N); expressed in transfected cells; host or cells: Saccharomyces cerevisiae EBY100, pCTCON2
Nature of the data set: yeast/peptide colorimetric pull-down assay. Particulars: high concentrations used in the assay. The method, then: as §1

Another data set deals with Leu NAA peptide. Nature of the data set: yeast/peptide colorimetric pull-down assay. Particulars: yeast-displayed protein. The method, then:
as §1

The target of another data set is T5, Ile NAA peptide (Agrobacterium fabrum, UniProt Q8UD95).
T5 construct: factor Xa cleavage site (N); expressed in transfected cells; host or cells: Saccharomyces cerevisiae EBY100, pCTCON2
Nature of the data set: yeast/peptide colorimetric pull-down assay. The method, then: as §1

The target in the next data set is T6, Met NAA peptide (Agrobacterium fabrum, UniProt Q8UD95).
T6 construct: factor Xa cleavage site (N); expressed in transfected cells; host or cells: Saccharomyces cerevisiae EBY100, pCTCON2
Nature of the data set: yeast/peptide colorimetric pull-down assay. Particulars: high concentrations used in the assay. On the procedure:
as §1

The target in another data set is T7, Val NAA peptide (Agrobacterium fabrum, UniProt Q8UD95).
T7 construct: factor Xa cleavage site (N); expressed in transfected cells; host or cells: Saccharomyces cerevisiae EBY100, pCTCON2
Nature of the data set: yeast/peptide colorimetric pull-down assay. The method, then: as §1

The next data set relates to W1G2 peptide. Conditions: for KOFF Trp: from SPR dissociation curves; for Selectivity for Trp, Trp/Phe / Selectivity for Trp, Trp/Trp / Selectivity for Trp, Trp/Tyr: relative specificity factor, ratio of binding affinities; for Kd: steady state, peptide on surface, 0 to 50 μM protein, read-out: KD Trp. On the procedure:
(§5) With regard to surface plasmon resonance (SPR), SPR data was collected by loading a streptavidin chip with the target biotinylated peptides in each of the four channels, and then flowing the protein over the chip at each concentration for 180 seconds before washing with 50 mM Tris-HCl, pH 8.0, 300 mM NaCl, 1 mM DTT, 5% glycerol buffer for 180 seconds. […] The four channels were used such that the negative control peptide (A1G2) was in channel 1, F1G2 in channel 2, W1G2 in channel 3, and Y1G2 in channel 4. The negative control peptide channel was used as a baseline for subtraction, which accommodates both any non-specific binding and refractive index change. A steady state response at each concentration was plotted and fit to calculate the KD, while the resonance units vs. time was used to calculate a koff for each mutant protein with each peptide.
(§6) Regarding characterization of the ClpS mutant protein binding kinetics, for peptide sequencing via some recently proposed methods reagents can bind peptides affixed to a surface. Two A. tumefaciens ClpS2 protein variants (V2, described above, and V1) were expressed and purified from E. coli. […] The binding properties of each variant were analyzed using surface plasmon resonance (SPR).

The target in data set [4] is T8, full panel of 20 peptides containing different NAAs (Agrobacterium fabrum, UniProt Q8UD95).
T8 construct: factor Xa cleavage site (N); expressed in transfected cells; host or cells: Saccharomyces cerevisiae EBY100, pCTCON2
Nature of the data set: yeast/peptide colorimetric pull-down assay, full panel. The method, then: as §1

Another data set has as its system Y1G2 peptide. Nature of the data set: SPR, peptide on streptavidin chip, ClpS2 variant protein in solution. Particulars: for KOFF Tyr: from SPR dissociation curves; for Selectivity for Tyr, Tyr/Phe / Selectivity for Tyr, Tyr/Trp / Selectivity for Tyr, Tyr/Tyr: relative specificity factor, ratio of binding affinities; for Kd: steady state, peptide on surface, 0 to 50 μM protein, read-out: KD Tyr. On the procedure: as §5, §6
(In general: In SPR one partner is held on a chip, and binding of the other changes the refractive index at the surface.)

Data set [5] relates to F1G2 peptide. The data set is described as above. Particulars: for specificity between N-terminal Phe and Trp, in words: from SPR binding data; for KOFF Phe: from SPR dissociation curves; for Selectivity for Phe, Phe/Phe / Selectivity for Phe, Phe/Trp / Selectivity for Phe, Phe/Tyr: relative specificity factor, ratio of binding affinities; for Kd: steady state, peptide on surface, 0 to 50 μM protein, read-out: KD Phe. The method, then: as §5, §6

In data set [6] the target is T1, His NAA peptide. Nature of the data set: yeast/peptide colorimetric pull-down assay. More on the design: factor Xa cleavage site (N); expressed in transfected cells; host or cells: Saccharomyces cerevisiae EBY100, pCTCON2. Particulars: high concentrations used in the assay. The method, then: as §1
Data set [7] deals with T2, Arg NAA peptide. Nature of the data set: yeast/peptide colorimetric pull-down assay. More on the design: factor Xa cleavage site (N); expressed in transfected cells; host or cells: Saccharomyces cerevisiae EBY100, pCTCON2. Conditions: high concentrations used in the assay. On the procedure:
as §1

Regarding “A. tumefaciens ClpS2 [Variant V3, A. tumefaciens ClpS2 [Cys34 Ser35 Trp36]]”, in the data set on F1G2 peptide [1], the “affinity for F1G2 peptide compared to wild-type” value is listed as “increased affinity” and the “selectivity towards F1G2 peptide compared to other NAAs” value is recorded as “higher selectivity”.

B1: A. tumefaciens ClpS2 [Pro34 Arg35 Glu36] (protein)
chain: MGHHHHHHENLYFQGSDSPVDLKPKPKVKPKLERPKLYKVMLLNDDYTPREFVTVVLKAVFRMSEDTGRRVMMTAHRFGSAVVVVCERDIAETKAKEATDLGKEAGFPLMFTTEPEE
notes: wild-type Agrobacterium tumefaciens ClpS2, N-End Rule Pathway adaptor protein
For the molecule B1, in the data set with His NAA peptide [2], the “binding to His” value is “confirmed”. The “binding to Arg” value with Arg NAA peptide [3] is recorded as “confirmed”. Further, the “binding to Ala” value with Ala NAA peptide was “lack of binding”. Further, the “binding to Lys” value with Lys NAA peptide was “some binding activity”. Also, in the data set with Leu NAA peptide, the “binding to Leu” value is “does not bind”. The “binding to Ile” value with Ile NAA peptide is on record as “does bind”. Further, in the data set with Met NAA peptide, the “binding to Met” value is reported as “some binding activity”. Besides, in the data set with Val NAA peptide, the “binding to Val” value is reported as “lack of binding”. Further, in the data set with W1G2 peptide, the “KOFF Trp” value turned out to be 1.32 s⁻¹; the “Selectivity for Trp, Trp/Phe” value is 1.42; the “Selectivity for Trp, Trp/Trp” value came out at 1.0; the “Selectivity for Trp, Trp/Tyr” value was determined as 0.29. In addition, the dissociation constant Kd at W1G2 peptide is 18.4 ± 0.4 µM. Further, the “binding to the remaining amino acids” value in [4] is “non-binding”. In the data set on Y1G2 peptide, the “KOFF Tyr” value was found to be 1.16 s⁻¹; the “Selectivity for Tyr, Tyr/Phe” value was found to be 4.86; the “Selectivity for Tyr, Tyr/Trp” value was found to be 3.43; the “Selectivity for Tyr, Tyr/Tyr” value came to 1.0. Moreover, the Kd on Y1G2 peptide turned out to be 63 ± 4 µM. Moreover, in the data set on F1G2 peptide [5], the “specificity between N-terminal Phe and Trp, in words” value is “modest specificity for N-terminal Phe”; the “KOFF Phe” value stood at 0.93 s⁻¹; the “Selectivity for Phe, Phe/Phe” value was determined as 1.0; the “Selectivity for Phe, Phe/Trp” value is listed as 0.71. Further, in the data set with F1G2 peptide [5], the “Selectivity for Phe, Phe/Tyr” value was 0.21 and the Kd was 13 ± 0.6 µM. For the same molecule, the “binding to His” value with His NAA peptide [6] was “some binding activity”. Also, in the data set with Arg NAA peptide [7], the “binding to Arg” value is given as “some binding activity”.

B2: A. tumefaciens ClpS2 [Pro34 Met35 Ser36] (protein, listed as Escherichia coli)
chain: SDSPVDLKPKPKVKPKLERPKLYKVMLLNDDYTPMSFVTVVLKAVFRMSEDTGRRVMMTAHRFGSAVVVVCERDIAETKAKEATDLGKEAGFPLMFTTEPEE
notes: ClpS2 variant, native residues 34-36 ProArgGlu mutated to ProMetSer
With B2, in the data set on W1G2 peptide, the “KOFF Trp” value was determined as 0.76 s⁻¹; the “Selectivity for Trp, Trp/Phe” value worked out at 7.28; the “Selectivity for Trp, Trp/Trp” value came out at 1.0; the “Selectivity for Trp, Trp/Tyr” value turned out to be 1.13. Besides, the Kd on W1G2 peptide stood at 13.1 ± 1.3 µM. Further, in the data set on W1G2 peptide (in vitro surface binding assays / SPR), the “affinity for N-terminal Trp relative to wild-type, in words” value is reported as “little change”. Further, the “improvement in affinity for Y1G2 compared to wild-type” value in the data set with Y1G2 peptide (SPR) was 5.5 fold. In the data set with Y1G2 peptide, the “KOFF Tyr” value was 0.5 s⁻¹; the “Selectivity for Tyr, Tyr/Phe” value worked out at 6.43; the “Selectivity for Tyr, Tyr/Trp” value is given as 0.88; the “Selectivity for Tyr, Tyr/Tyr” value is on record as 1.0. In addition, at Y1G2 peptide, the Kd was 11.6 ± 1.2 µM. In addition, in the data set with F1G2 peptide [5] (SPR), the “dissociation rate slowed over wild-type, Phe” value is given as 9.4 fold and the “improvement in KD/affinity for Phe peptide compared to wild-type” value is reported as 7.2 fold. For the same molecule, the “improvement in KD/affinity for Phe peptide compared to wild-type” value in the data set on F1G2 peptide [5] (SPR, listed as ProMetSer variant) is 7 fold. Besides, in the data set on F1G2 peptide [5], the “specificity between N-terminal Phe and Trp, in words” value is on record as “more specific for N-terminal Trp than for Phe”; the “KOFF Phe” value is 0.1 s⁻¹; the “Selectivity for Phe, Phe/Phe” value amounted to 1.0; the “Selectivity for Phe, Phe/Trp” value is listed as 0.14. Further, in the data set with F1G2 peptide [5], the “Selectivity for Phe, Phe/Tyr” value is 0.16 and the Kd is 1.8 ± 0.4 µM.

The record behind these values is patent US11390653B2, “Amino acid-specific binder and selectively identifying an amino acid” (priority 2018, dated 2022).
